Positions count from the first letter of the chain named. Values belong to the binder of their own block, whether it stands above or below them.
How the values were obtained:
[1] = target: T1, mouse ROR1 expressed on CHO cells (CHO-K1/Mouse ROR1 stable cells) (mouse, UniProt Q9Z139 30-937); test: flow cytometry, antibody at 10 ug/ml on CHO cells
T1 construct: whole, on cells
Experimental: (§1) CHO cells expressing human and mouse ROR1 and parental cells as the negative control for detection were collected and washed 3 times with PBS. 2.5×10⁵ test cells and 100 μl of purified antibody at 10 μg/ml were added to a 96-well plate, and the plate was incubated at 4° C. for 1 hour. The cells were then washed 3 times with PBS, 100 μl of iFluor-labeled goat anti-human IgG, an Fcγ-specific fragment antibody, was added, and the plate was incubated at 4° C. for 45 minutes. Finally, the cells were washed 3 times with PBS, and the signals were read using FACS BD Calibur.

[2] = target: T2, human ROR1 Frizzled-His domain protein (amino acid sequence at positions 165-305, Acrobiosystems, RO1-H5222) (human, UniProt Q01973 165-305); test: indirect ELISA, antigen coated at 1 ug/ml
T2 construct: also called Human ROR1 Frizzled-His protein; not shown: His tag
Experimental: (§2) Indirect ELISA was used to assess the binding capability of the above purified antibodies to human ROR1-related recombinant proteins. ELISA plates (Nunc) were coated with 1 μg/ml of human ROR1-His protein, human ROR1 Frizzled-His domain protein, and human ROR1 Kringle-His domain protein in 100 μl/well of CBS overnight at 4° C. The plates were washed with PBS-T (0.05% Tween) and blocked with 300 μl/well of PBS containing 3% skim milk at 37° C. for 1 hour. Subsequently, the blocking solution was discarded, and 100 μl of purified antibody at 8 μg/ml (about 100 nM) was added to the first well and diluted according to a 3-fold gradient to obtain a total of 11 test concentration gradients. The plates were then incubated for 1 hour at room temperature. The plates were washed 3 times with PBST and incubated with 100 μl/well of horseradish peroxidase-conjugated mouse anti-human IgG Fc fragment (GenScript) for 0.5 hours at 37° C. The plates were washed five times with PBST, a TMB chromogenic solution (GenScript) was then added, and the plates were incubated for 15 minutes at room temperature in the dark. The reaction was stopped by adding 50 μl of 1 M HCl stop solution (Sigma). The plates were read at 450 nm using a microplate reader. FIGS. 1-3 show the results of the ELISA experiment on the binding of 8 positive recombinant antibody clones to ROR1-related antigen proteins, and the EC₅₀ for each antibody is as shown in Table 2 below: the antigen binding capacity of the antibodies tested was all equal to or higher than that of the positive reference antibody R11-scFv.

[3] = target: T3, human ROR1-His protein (fused with a His protein tag, Acrobiosystems, RO1-H522y) (human, UniProt Q01973 30-403); test: indirect ELISA, antigen coated at 1 ug/ml
T3 construct: also called recombinant human ROR1-His protein; not shown: His tag
Experimental: as §2

[4] = target: T4, human ROR1 expressed on CHO cells (CHO-K1/Human ROR1 stable cells) (human, UniProt Q01973 30-937); test: flow cytometry, 10 ug/ml antibody on Human ROR1-CHO-K1 cells (curve 1), fluorescent secondary antibody
T4 construct: whole, on cells; also called CHO-K1/ROR1/Luc (Nanjing Probio, Cat #RD00949)
Experimental: as §1

[5] = target: T1, mouse ROR1 expressed on CHO cells …; test: flow cytometry, 10 ug/ml antibody on Mouse ROR1-CHO-K1 cells (curve 2), fluorescent secondary antibody
Experimental: as §1

[6] = target: T3, human ROR1-His protein (fused with a …); test: SPR Biacore T200, antibody Fc-captured, antigen as analyte
Experimental: (§3) The affinity of purified antibodies for human ROR1-related proteins was determined separately using the surface plasmon resonance (SPR) biosensor Biacore T200 (GE Healthcare). The antibodies were immobilized on the sensor chip by the Fc capture method. Human ROR1-related proteins were used as analytes. Data for dissociation (kd) and association (ka) rate constants were obtained using the Biacore T200 evaluation software. The equilibrium dissociation constant (KD) was calculated from the ratio of kd to ka.

[7] = target: T3, human ROR1-His protein (fused with a …); test: SPR Biacore T200, method as Example 6 (antibody Fc-captured, antigen as analyte)
Experimental: as §3
(§4) According to the mutation status of the improved clones in the precise saturation mutation library, the combinatorial mutations and the relevant primers for library construction for the second round were designed. The combinatorial mutation library construction was performed still using the prokaryotic soluble expression plasmid of the humanized single domain antibody as the template. The subsequent screening process was the same as that for the precise saturation mutation library. Finally, the top 5 or 7 clones ranked by the improvement fold in affinity were selected for recombinant verification. 5 clones with improved affinity (AHF22016, AHF22018, AHF22013, AHP15485-VHH4-Variant1, and AHP15485-VHH4-Variant2) were obtained from the humanized antibody AHP15485 through affinity maturation screening, and were subjected to eukaryotic expression and purification, as well as subsequent affinity detection at various concentrations. 7 clones (AHP15662-VHH4-Variant1, AHP15662-VHH4-Variant2, AHP15662-VHH4-Variant3, AHF21711, AHF21719, AHF21720, and AHF21721) were obtained from AHP15662-VHH4.

[8] = target: T2, human ROR1 Frizzled-His domain protein …; test: as above
Experimental: as §3, §4

[9] = target: T2, human ROR1 Frizzled-His domain protein …; test: SPR Biacore T200, antibody Fc-captured, antigen as analyte
Experimental: as §3

[10] = target: human ROR1 Frizzled-His domain protein (amino acid sequence at positions 165-305, Acrobiosystems, RO1-H5222) (human) (UniProt Q01973); test: indirect ELISA, plate coated with human ROR1 Frizzled-His, HRP anti-human IgG Fc, OD450
human ROR1 Frizzled-His domain protein (amino acid sequence at positions 165-305, Acrobiosystems, RO1-H5222) (human), sequence (Q01973 165-305 limits assumed, form in doubt): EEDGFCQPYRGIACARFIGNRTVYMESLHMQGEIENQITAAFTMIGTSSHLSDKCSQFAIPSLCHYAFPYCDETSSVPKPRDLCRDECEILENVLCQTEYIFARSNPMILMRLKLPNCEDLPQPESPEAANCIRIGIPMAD

T4 sequence (Q01973 30-937): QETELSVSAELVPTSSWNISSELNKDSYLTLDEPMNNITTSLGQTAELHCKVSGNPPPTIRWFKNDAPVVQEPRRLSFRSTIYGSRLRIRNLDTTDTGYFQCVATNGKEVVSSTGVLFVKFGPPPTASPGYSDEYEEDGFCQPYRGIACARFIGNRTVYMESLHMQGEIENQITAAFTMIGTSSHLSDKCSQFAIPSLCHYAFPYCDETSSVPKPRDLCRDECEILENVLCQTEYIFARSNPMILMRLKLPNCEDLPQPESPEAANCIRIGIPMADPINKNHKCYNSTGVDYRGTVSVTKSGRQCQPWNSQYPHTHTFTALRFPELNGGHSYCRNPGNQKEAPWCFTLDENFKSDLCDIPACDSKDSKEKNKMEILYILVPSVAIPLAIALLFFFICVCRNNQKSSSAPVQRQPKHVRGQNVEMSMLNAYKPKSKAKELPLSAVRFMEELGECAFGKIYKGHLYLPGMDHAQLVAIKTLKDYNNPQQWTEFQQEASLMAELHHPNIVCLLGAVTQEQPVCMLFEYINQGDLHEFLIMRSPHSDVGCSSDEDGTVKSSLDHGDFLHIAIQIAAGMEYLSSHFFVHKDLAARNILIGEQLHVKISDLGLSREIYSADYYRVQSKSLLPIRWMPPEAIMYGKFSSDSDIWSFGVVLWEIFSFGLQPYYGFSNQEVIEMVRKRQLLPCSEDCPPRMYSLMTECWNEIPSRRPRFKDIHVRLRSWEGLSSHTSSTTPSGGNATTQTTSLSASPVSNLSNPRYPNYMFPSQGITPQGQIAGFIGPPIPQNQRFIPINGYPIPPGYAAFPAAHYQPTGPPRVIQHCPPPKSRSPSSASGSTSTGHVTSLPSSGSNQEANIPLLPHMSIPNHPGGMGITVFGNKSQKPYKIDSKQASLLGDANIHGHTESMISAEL
T2 sequence (Q01973 165-305 limits assumed, form in doubt): as the sequence (Q01973 165-305 limits assumed, form in doubt) above
T1 sequence (Q9Z139 30-937): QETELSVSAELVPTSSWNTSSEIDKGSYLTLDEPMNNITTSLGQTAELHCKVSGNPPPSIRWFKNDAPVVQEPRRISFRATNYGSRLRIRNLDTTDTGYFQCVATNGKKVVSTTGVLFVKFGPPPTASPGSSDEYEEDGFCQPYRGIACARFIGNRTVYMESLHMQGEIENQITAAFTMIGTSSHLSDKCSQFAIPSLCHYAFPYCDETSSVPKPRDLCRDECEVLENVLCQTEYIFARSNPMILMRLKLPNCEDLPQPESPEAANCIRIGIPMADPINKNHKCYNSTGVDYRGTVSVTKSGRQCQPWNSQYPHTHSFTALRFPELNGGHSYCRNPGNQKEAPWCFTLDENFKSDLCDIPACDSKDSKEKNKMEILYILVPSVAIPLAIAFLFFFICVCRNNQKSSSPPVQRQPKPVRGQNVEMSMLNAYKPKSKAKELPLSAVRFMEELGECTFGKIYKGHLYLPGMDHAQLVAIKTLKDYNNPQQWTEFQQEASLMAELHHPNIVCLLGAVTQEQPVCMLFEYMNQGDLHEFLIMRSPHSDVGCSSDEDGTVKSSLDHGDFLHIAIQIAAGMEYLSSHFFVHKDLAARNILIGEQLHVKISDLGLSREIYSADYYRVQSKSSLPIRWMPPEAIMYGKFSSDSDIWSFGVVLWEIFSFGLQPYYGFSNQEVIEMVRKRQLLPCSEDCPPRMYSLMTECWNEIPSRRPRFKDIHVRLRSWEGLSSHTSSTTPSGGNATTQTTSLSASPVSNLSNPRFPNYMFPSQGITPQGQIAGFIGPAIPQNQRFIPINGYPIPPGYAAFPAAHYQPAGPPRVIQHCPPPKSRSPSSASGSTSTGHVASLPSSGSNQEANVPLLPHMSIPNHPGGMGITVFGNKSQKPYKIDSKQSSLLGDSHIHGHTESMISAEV
T3 sequence (Q01973 30-403 limits assumed): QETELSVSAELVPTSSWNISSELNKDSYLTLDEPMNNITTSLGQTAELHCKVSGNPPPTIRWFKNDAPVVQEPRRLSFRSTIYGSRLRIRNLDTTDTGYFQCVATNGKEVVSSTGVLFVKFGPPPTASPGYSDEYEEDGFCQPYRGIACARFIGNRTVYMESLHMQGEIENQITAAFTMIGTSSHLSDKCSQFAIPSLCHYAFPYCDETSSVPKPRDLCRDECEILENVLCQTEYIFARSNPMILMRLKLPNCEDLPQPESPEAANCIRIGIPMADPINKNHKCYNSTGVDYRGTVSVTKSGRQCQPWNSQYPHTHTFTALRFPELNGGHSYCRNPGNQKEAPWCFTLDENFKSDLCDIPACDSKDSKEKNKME

B1: single domain antibody AHP15547 (Fc fusion)
chain: AVQLVDSGGGSVQPGESLTLSCTGSARFLSNYGMGWYRQFPGKMREMVAYETNRGNKRYAESVKGRFRIARDAAKTTVYLEMNSLKPEDTAVYYCNAESSGWGRRNYWGQGTQVTVSS
notes: VHH expressed from pcDNA3.4-Fc (HuIgG1); not shown: human IgG1 Fc of the pcDNA3.4-Fc (HuIgG1) expression vector
binding result [1]: binds
EC50 [2]: 0.0165 µg/mL
EC50 [3]: 0.0105 µg/mL

B2: single domain antibody AHP15776 (Fc fusion)
chain: QVQLVESGGGLVQPGGSLTLSCAASQSISSIYLLGWYRQAPGKERESVARITTSGTTTYIADSVKGRFTLSRDNAKNTMYLQMNSLKPEDTAVYYCNVPFLVATARGNAYWGQGTQVTVSS
notes: as for B1
binding result [1]: binds
EC50 [2]: 0.023 µg/mL
EC50 [3]: 0.0109 µg/mL

B4: single domain antibody AHP15485-VHH4-Variant2 (Fc fusion)
chain: EVQLVESGGGLVQPGGSLRLSCAASGRSFSSFQMGWFRQAPGKEREFVAASGWSGGPTYYWDSVIGRFTISTDNSKNTLYLQMNSLRAEDTAVYYCYEDRVLSGRPVRYWGQGTLVTVSS
notes: Fc format is inferred; not shown: human IgG1 Fc; vector and li
Kd [7]: 21.4 nM
koff [7]: 0.0018 s⁻¹
kon [7]: 84000 M⁻¹ s⁻¹

B6: single domain antibody AHF22018 (Fc fusion)
chain: B4 chain with V64W, I65K, P106W
notes: not shown: human IgG1 Fc; vector and li
Kd [7]: 20.3 nM
koff [7]: 0.000884 s⁻¹
kon [7]: 43500 M⁻¹ s⁻¹

B7: single domain antibody AHF22013 (Fc fusion)
chain: B4 chain with P106H
notes: as for B4
Kd [7]: 8.91 nM
koff [7]: 0.000374 s⁻¹
kon [7]: 42000 M⁻¹ s⁻¹

B8: humanized single domain antibody AHP15485-VHH4 (Fc fusion)
chain: B4 chain with S31N, W61A, I65K
notes: Humanized VHH expressed from pcDNA3.4-Fc (Human IgG1); not shown: human IgG1 Fc of the pcDNA3.4-Fc (Human IgG1) expression vector
Kd [7]: 290 nM
koff [7]: 0.0547 s⁻¹
kon [7]: 189000 M⁻¹ s⁻¹
Geometric Mean : Alexa Fluor 647-H [4]: 38500
Geometric Mean : Alexa Fluor 647-H [5]: 8630
Kd [6]: 320 nM
koff [6]: 0.0686 s⁻¹
kon [6]: 214000 M⁻¹ s⁻¹

B9: single domain antibody AHF21719 (Fc fusion)
chain: EVQLVESGGGLVQPGGSLRLSCAASGYISRFYAMGWYRQAPGKQRELVARISSGGWTYYADSVKGRFTISIDNSKNTLYLQMNSLRAEDTAVYYCNARNLWGQGTLVTVSS
notes: as for B4
Kd [8]: 21.6 nM
koff [8]: 0.00169 s⁻¹
kon [8]: 78100 M⁻¹ s⁻¹

B11: humanized single domain antibody AHP15662-VHH4 (Fc fusion)
chain: B9 chain with Y27S, M34V, W56S
notes: as for B8
Kd [8]: 294 nM
koff [8]: 0.103 s⁻¹
kon [8]: 350000 M⁻¹ s⁻¹
Geometric Mean : Alexa Fluor 647-H [4]: 55400
Geometric Mean : Alexa Fluor 647-H [5]: 52800
Kd [9]: 247 nM
koff [9]: 0.111 s⁻¹
kon [9]: 449000 M⁻¹ s⁻¹

B13: single domain antibody AHF21721 (Fc fusion)
chain: B9 chain with Y27F, G54M
notes: as for B4
Kd [8]: 15.6 nM
koff [8]: 0.00113 s⁻¹
kon [8]: 72500 M⁻¹ s⁻¹

B15: single domain antibody AHF21711 (Fc fusion)
chain: B9 chain with G26H, Y27S, M34I, G54M, W56R
notes: as for B4
Kd [8]: 19.3 nM
koff [8]: 0.00174 s⁻¹
kon [8]: 90100 M⁻¹ s⁻¹

B16: single domain antibody AHF21720 (Fc fusion)
chain: B9 chain with G54L
notes: as for B4
Kd [8]: 16.9 nM
koff [8]: 0.00124 s⁻¹
kon [8]: 73600 M⁻¹ s⁻¹

B18: single domain antibody AHP15773 (Fc fusion)
chain: EVQLVESGGGLVQPGGSLRLSCLASGSDFSDSAMGWYRQAPGKQREFVAAIGAGGITTYADSVKGRFTISRDSAKNIVYLQMSSLSPEDTAVYFCNFAPGWYPPGYQYWGQGTQVTVSS
notes: VHH expressed from pcDNA3.4-Fc (HuIgG1); also called AHP15773-VHH; not shown: human IgG1 Fc of the pcDNA3.4-Fc (HuIgG1) expression vector
Geometric Mean : Alexa Fluor 647-H [4]: 33400
EC50 [3]: 0.0155 µg/mL
EC50 (read off the curve) [10]: 0.07 µg/mL
Geometric Mean : Alexa Fluor 647-H [5]: 54900
Kd [6]: 757 nM
koff [6]: 0.117 s⁻¹
kon [6]: 155000 M⁻¹ s⁻¹

B19: humanized single domain antibody AHP15773-VHH4 (Fc fusion)
chain: B18 chain with L23A, S73N, I77T, V78L, S83N, S86R, P87A, Q114L
notes: as for B8
Geometric Mean : Alexa Fluor 647-H [4]: 28700
Geometric Mean : Alexa Fluor 647-H [5]: 48500
Kd [6]: 319 nM
koff [6]: 0.0587 s⁻¹
kon [6]: 184000 M⁻¹ s⁻¹

The next lines start with the values.

Geometric Mean : Alexa Fluor 647-H [4]: 61400
EC50 [3]: 0.0061 µg/mL
Geometric Mean : Alexa Fluor 647-H [5]: 31400
Kd [6]: 280 nM
koff [6]: 0.063 s⁻¹
kon [6]: 225000 M⁻¹ s⁻¹
B3: single domain antibody AHP15485 (Fc fusion)
chain: EVQLVESGGGLAQAGGSLSLSCTASGRSFSNFQMGWFRQAPGKEREFVAASGWSGGPTYYADSVKGRFTISTDDSKKTMYLQMNSLKPEDTAAYYCYEDRVLSGRPVRYWGRGTQVTVSS
notes: Alpaca VHH expressed from pcDNA3.4-Fc (HuIgG1) in HEK293-6E; also called AHP15485-VHH; not shown: human IgG1 Fc of the pcDNA3.4-Fc (HuIgG1) expression vector

Kd [7]: 184 nM
koff [7]: 0.0153 s⁻¹
kon [7]: 83100 M⁻¹ s⁻¹
B5: single domain antibody AHP15485-VHH4-Variant1 (Fc fusion)
chain: B4 chain with S31N
notes: as for B4

Kd [8]: 75.3 nM
koff [8]: 0.0119 s⁻¹
kon [8]: 159000 M⁻¹ s⁻¹
B10: single domain antibody AHP15662-VHH4-Variant2 (Fc fusion)
chain: B9 chain with G26Y, Y27F, M34V
notes: as for B4

Kd [8]: 39.5 nM
koff [8]: 0.0062 s⁻¹
kon [8]: 157000 M⁻¹ s⁻¹
B12: single domain antibody AHP15662-VHH4-Variant3 (Fc fusion)
chain: B9 chain with G26H, M34V
notes: as for B4

Geometric Mean : Alexa Fluor 647-H [4]: 56400
EC50 [2]: 0.0105 µg/mL
EC50 [3]: 0.0105 µg/mL
Geometric Mean : Alexa Fluor 647-H [5]: 75600
Kd [9]: 550 nM
koff [9]: 0.19 s⁻¹
kon [9]: 345000 M⁻¹ s⁻¹
B14: single domain antibody AHP15662 (Fc fusion)
chain: B9 chain with S17T, Y27S, M34V, W56S, D72N, L78V, S84N, R86K, A87P, L106Q
notes: VHH expressed from pcDNA3.4-Fc (HuIgG1); also called AHP15662-VHH; not shown: human IgG1 Fc of the pcDNA3.4-Fc (HuIgG1) expression vector

Kd [8]: 46.3 nM
koff [8]: 0.00701 s⁻¹
kon [8]: 151000 M⁻¹ s⁻¹
B17: single domain antibody AHP15662-VHH4-Variant1 (Fc fusion)
chain: B9 chain with G26Y, M34V
notes: as for B4
